Results reported in publication PMC6690965, “OsCAldOMT1 is a bifunctional O-methyltransferase involved in the biosynthesis of tricin-lignins in rice cell walls” (Scientific Reports, 2019).

Assays:
[1] = substrate: COc1cc(/C=C/C=O)cc(O)c1O; experiment: HPLC/LC-MS O-methylation assay, Michaelis-Menten fit; assay type: biochemical, Oryza sativa; settings: 50 mM Tris-HCl pH 7.5, co-substrate S-adenosyl-L-methionine, 20 min, 10-200 µM substrate
[2] = substrate: COc1cc(-c2cc(=O)c3c(O)cc(O)cc3o2)cc(O)c1O; experiment: as above; assay type: biochemical, Oryza sativa; settings: 50 mM Tris-HCl pH 7.5, co-substrate S-adenosyl-L-methionine, 20 min, 10-200 µM substrate, 5'-O-methylation giving tricin

B1: OsCAldOMT1 (Oryza sativa Japonica Group) (protein)
chain: MGSTAADMAAAADEEACMYALQLASSSILPMTLKNAIELGLLETLQSAAVAGGGGKAALLTPAEVADKLPSKANPAAADMVDRMLRLLASYNVVRCEMEEGADGKLSRRYAAAPVCKWLTPNEDGVSMAALALMNQDKVLMESWYYLKDAVLDGGIPFNKAYGMTAFEYHGTDARFNRVFNEGMKNHSVIITKKLLDLYTGFDAASTVVDVGGGVGATVAAVVSRHPHIRGINYDLPHVISEAPPFPGVEHVGGDMFASVPRGGDAILMKWILHDWSDEHCARLLKNCYDALPEHGKVVVVECVLPESSDATAREQGVFHVDMIMLAHNPGGKERYEREFRELARAAGFTGFKATYIYANAWAIEFTK
B1 gave a Km [1] of 132.8 ± 21.3 µM, a kcat [1] of 373.0 ± 37.9 s⁻¹ and a Km [2] of 68.2 ± 14.5 µM. The kcat [2] was 158.5 ± 16.6 s⁻¹.
